Experimental data: publication PMC4878094

Columns and labels:
Test in all cases: single-filament TIRF microscopy of microtubule growth
[1] = target: recombinant α/βIIB tubulin heterodimer (human) (UniProt P68363)
[2] = target: recombinant α/βIIB-tail-III tubulin heterodimer (human) (UniProt P68363)
[3] = target: recombinant α/βIII-tail-IIB tubulin heterodimer (human) (UniProt P68363)

**Q.** What does the source list for “recombinant α/βIIB tubulin heterodimer (from UniProt P68363-1 1-451; Q9BVA1 1-445) (complex)”?
**A.** koff [1]: 2.6 s⁻¹; kon [1]: 1.9e+06 M⁻¹ s⁻¹

**Q.** How did the koff [2] turn out when “recombinant α/βIIB-tail-III tubulin heterodimer (from UniProt P68363-1 1-451; Q9BVA1 1-427; Q13509 428-450) (complex)” was run?
**A.** 5.5 s⁻¹

**Q.** And the kon [2]?
**A.** 2e+06 M⁻¹ s⁻¹

**Q.** How did the koff [3] turn out when “recombinant α/βIII-tail-IIB tubulin heterodimer (from UniProt P68363-1 1-451; Q13509 1-427; Q9BVA1 428-445) (complex)” was run?
**A.** 2.4 s⁻¹

**Q.** And the kon [3]?
**A.** 1.8e+06 M⁻¹ s⁻¹
